The text below walks through data of paper PMC11713712, “PFTAIRE peptide degrading cyclin Y and ameliorating cognitive deficits in mouse models of Alzheimer’s Disease” (Alzheimer's & Dementia, 2025).

Series [1] deals with T1, CCNY protein (Homo sapiens, UniProt Q8ND76). The series is described as follows: Binding of PFTAIRE peptide to CCNY protein in in vitro studies. The source says: (§1) Utilizing solid‐phase peptide synthesis, PFTAIRE peptide was produced.
Series [2] deals with T1, CCNY protein. The series is described as follows: CCNY protein level.
From the text: as §1

The subject of the next series is AD mouse models. The experiment in a line: Behavior tests in AD mouse models after intravenous injection. The series is classed as in vivo. The following applies: intravenously injected.
From the text: as §1

On series [3], the source says:
Abstract Background Cyclin Y (CCNY) is a member of cyclin protein family inhibiting long‐term synaptic plasticity, which is related to the learning and memory function in neuronal system. Recently, CCNY has been reported to associate with the cognitive deficits in Alzheimer’s disease (AD). […] This peptide is derived from the domain of cyclin‐dependent kinase 14, a kinase degrading CCNY protein, and this domain is essential for the binding to CCNY. Utilizing solid‐phase peptide synthesis, PFTAIRE peptide was produced. […] We intravenously injected PFTAIRE peptide to AD mouse models and performed behavior tests.

T1 sequence (Q8ND76 whole entry, species assumed): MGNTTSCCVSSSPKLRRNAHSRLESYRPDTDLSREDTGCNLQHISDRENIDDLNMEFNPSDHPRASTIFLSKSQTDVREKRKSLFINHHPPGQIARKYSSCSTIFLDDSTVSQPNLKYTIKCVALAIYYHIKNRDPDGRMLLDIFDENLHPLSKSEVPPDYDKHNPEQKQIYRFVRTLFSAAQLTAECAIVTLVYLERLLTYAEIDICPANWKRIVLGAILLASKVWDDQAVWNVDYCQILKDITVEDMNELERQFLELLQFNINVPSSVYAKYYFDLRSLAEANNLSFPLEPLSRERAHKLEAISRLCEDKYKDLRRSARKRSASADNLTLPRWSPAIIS

For the substance “PFTAIRE peptide: Peptide derived from the domain of cyclin‐dependent kinase 14 essential for binding to CCNY; produced by solid‐phase peptide synthesis”, the “binding to CCNY protein” value in the series with CCNY protein [1] is on record as “binds to CCNY protein”. Also, the CCNY protein level entry with CCNY protein [2] was “diminish CCNY protein level”. The “memory impairments in behavior tests” value with AD mouse models is “prevents memory impairments”. Moreover, the plasma stability result in series [3] was “confirmed the plasma and liver microsomal stability”. In addition, the liver microsomal stability result in series [3] (liver microsomes) was “confirmed the plasma and liver microsomal stability”.
